Test: protein stability index of a GFP-peptide fusion (GPS, HEK-293T) (PSI 1-6); higher = more stable
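Further: lentivirally expressed fusions sorted by FACS into six bins by GFP to DsRed ratio, PSI derived from sequencing read proportions per bin multiplied by bin number.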

## YHSPELTTPPGHGTLDNSKSMKPY [NEUROD6 WT]
parent: IOH27687_36, c terminus: a fixed tail appended
  protein stability index: 2.22

## FVKALDDLHKMNHVTPPNVSLGAT [JUNB WT]
parent: IOH27814_24, c terminus: a fixed tail appended
  protein stability index: 1.94

## FGDSPKAEKRQIGDQEGPRPARST
parent: IOH27821_37, c terminus: a fixed tail appended
  protein stability index: 4.98

## YQRPQDSEDMWGDEDFTFGAYQPT
parent: IOH27821_46, c terminus: a fixed tail appended
  protein stability index: 2.9

## QLQCSPAELQAELLHSQARLAELE
parent: IOH27821_96, c terminus: a fixed tail appended
  protein stability index: 3.22

## LQRASILDMRRDHEEQLQRLKLLK
parent: IOH27821_117, c terminus: a fixed tail appended
  protein stability index: 3.67

## HAPTIHFNYRYFEVEEADGNKQWW [CPOX WT]
parent: IOH27839_43, c terminus: a fixed tail appended
  protein stability index: 2.33

## KISGGPRISYPLLHEWALREGEE [MAGEA6 WT]
parent: IOH28024_53, c terminus: native
  protein stability index: 2.93

## YQSYFKTIEELQQKILCAKAENAR
parent: IOH28032_25, c terminus: a fixed tail appended
  protein stability index: 1.83

## PTVDLNQVLNETRSQYEALVETNR
parent: IOH28032_44, c terminus: a fixed tail appended
  protein stability index: 3.1

## PMYFFLGNLSVLDVGCISVTVPSM [OR3A1 WT]
parent: IOH28412_11, c terminus: a fixed tail appended
  protein stability index: 2.98

## TLARMSRRTRGPVERAAAAAAAAA [C6orf223 WT]
parent: IOH28619_19, c terminus: a fixed tail appended
  protein stability index: 2.35

## FHCIETLVTTGANVNETDDWGRTA [ANKRD44 WT]
parent: IOH28621_76, c terminus: a fixed tail appended
  protein stability index: 1.99

## RIHTGERPYMCKECGKAFSQNSSL
parent: IOH28719_47, c terminus: a fixed tail appended
  protein stability index: 2.6

## SLGRHKRTHTGEKPYTCSVCGKSF
parent: IOH28719_60, c terminus: a fixed tail appended
  protein stability index: 2.55

## RTHTGEKPYTCSVCGKSFSRTTCL
parent: IOH28719_61, c terminus: a fixed tail appended
  protein stability index: 2.43

## KPYTCSVCGKSFSRTTCLFLHLRT
parent: IOH28719_62, c terminus: a fixed tail appended
  protein stability index: 2.03

## VHVIGVEEPSVGASMLFDIREST
parent: IOH28719_96, c terminus: native
  protein stability index: 2.07

## DSHILLCLMGLAETPGCATLLPAS
parent: IOH28737_24, c terminus: a fixed tail appended
  protein stability index: 2.86

## PGIDRPGMLCSFRIPGAWSCAWSL
parent: IOH28737_29, c terminus: a fixed tail appended
  protein stability index: 2.84

## TTKCVRQYEGHVNEYAYLPLHVHE
parent: IOH28737_51, c terminus: a fixed tail appended
  protein stability index: 2.65

## YPPPPPALPSSAPSGPPPPPPSVL [WASL WT]
parent: IOH28816_58, c terminus: a fixed tail appended
  protein stability index: 4.3

## ISEYEKSLQFDEKCLSIMLAEWEA [RPAIN WT]
parent: IOH28888_19, c terminus: a fixed tail appended
  protein stability index: 1.85

## KRSWEEHVTHWMGQPFNSDDRNTA
parent: IOH28890_2, c terminus: a fixed tail appended
  protein stability index: 2.65

## HVTHWMGQPFNSDDRNTACHHGLV
parent: IOH28890_3, c terminus: a fixed tail appended
  protein stability index: 2.14

## AIQGISEKEKAEIEAKEACDWLRA
parent: IOH28890_74, c terminus: a fixed tail appended
  protein stability index: 4.41

## RDAIEALCRRLNTLNKCAVMKLEI
parent: IOH28890_83, c terminus: a fixed tail appended
  protein stability index: 2.68

Reference: the supplement of paper PMC10567573
